Reference: US20240409645A1 (DUALYX, published 2024)

T1: human interleukin-2 receptor α-chain (human, UniProt P01589 22-240, limits assumed)
T1 construct: Recombinant human IL-2Rα protein, coated on the ELISA plate or amine-coupled to a CM5 chip; also called human IL-2Rα; hu IL-2R
T1 sequence: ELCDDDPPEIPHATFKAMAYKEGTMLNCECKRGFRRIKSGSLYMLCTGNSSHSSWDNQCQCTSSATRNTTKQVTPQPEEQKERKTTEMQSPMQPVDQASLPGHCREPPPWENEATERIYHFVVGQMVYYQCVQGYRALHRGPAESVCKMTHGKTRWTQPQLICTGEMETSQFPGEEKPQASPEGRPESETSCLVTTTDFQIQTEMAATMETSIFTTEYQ

T2: mouse IL-2Rα (mouse, UniProt P01590 22-236, limits assumed)
T2 construct: Recombinant mouse IL-2Rα protein, coated on the ELISA plate or amine-coupled to a CM5 chip; also called mo IL-2R; moIL2R-a
T2 sequence (looked up): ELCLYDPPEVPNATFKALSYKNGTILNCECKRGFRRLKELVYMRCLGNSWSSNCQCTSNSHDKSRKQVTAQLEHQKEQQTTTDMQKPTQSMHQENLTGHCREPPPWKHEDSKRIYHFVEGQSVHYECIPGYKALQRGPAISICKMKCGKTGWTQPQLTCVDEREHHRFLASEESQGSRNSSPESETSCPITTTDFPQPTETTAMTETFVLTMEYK

T3: mouse IL-2Rα, recombinant protein (mouse, UniProt P01590 22-236, limits assumed)
T3 construct: also called moIL2R-a
T3 sequence (looked up): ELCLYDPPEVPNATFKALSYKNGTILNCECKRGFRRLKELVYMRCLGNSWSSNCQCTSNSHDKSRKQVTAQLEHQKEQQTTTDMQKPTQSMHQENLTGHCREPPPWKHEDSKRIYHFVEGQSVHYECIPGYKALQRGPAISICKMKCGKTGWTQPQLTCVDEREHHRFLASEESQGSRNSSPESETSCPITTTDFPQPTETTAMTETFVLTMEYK

T4: human interleukin-2 receptor α-chain (IL-2Rα; CD25), recombinant protein (human, UniProt P01589 22-240, limits assumed)
T4 construct: also called huIL2R-a; hIL-2RA
T4 sequence: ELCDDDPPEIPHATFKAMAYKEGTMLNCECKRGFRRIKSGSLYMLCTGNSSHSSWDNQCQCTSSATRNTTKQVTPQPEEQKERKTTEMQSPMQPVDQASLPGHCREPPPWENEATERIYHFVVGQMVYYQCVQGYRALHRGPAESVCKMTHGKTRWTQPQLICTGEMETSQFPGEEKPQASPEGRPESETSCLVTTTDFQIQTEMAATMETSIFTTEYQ


What was measured:
[1] = biological target: T1, human interleukin-2 receptor α-chain; assay: binding ELISA, periplasmic extract 1:5 on coated human IL-2Rα, anti-c-myc detection
Description: In a binding ELISA, human or mouse IL-2Rα, IL-2Rβ and IL-2Rγ proteins were coated directly on maxisorp microtiter plates overnight at 4° C. Free binding sites were blocked using 4% Marvel in PBS for 1 hour. Next, 1:5 dilution of P.E. in 1% Marvel/PBS were added to wells and incubated for 1 hour. […] Binding specificity was determined based on O.D. at 450 nm values compared to negative controls.

mouse IL-2Rα = biological target: T2, mouse IL-2Rα; assay: SPR (Biacore 3000) off-rate ranking, periplasmic extract over immobilised mouse IL-2Rα
[2] = biological target: T1, human interleukin-2 receptor α-chain; assay: SPR (Biacore 3000) off-rate ranking, periplasmic extract over immobilised human IL-2Rα
Description: SPR was performed to determine dissociation rates using Biacore 3000 instrument (GE Healthcare). Briefly, human and mouse IL-2R proteins were immobilized on carboxylmethyl dextran sensor chip (CM5) at approximately 2500 RUs using amine coupling in acetate buffer (GE Healthcare). The VHH-containing P.E. were loaded with a flow rate of 30 uL/min and the off-rates were measured over a 120s period.

[3] = biological target: T3, mouse IL-2Rα, recombinant protein; assay: P.E. binding ELISA
In short: (§1)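 Plates were coated overnight at 4° C with human or mouse IL-2R chain protein, and free sites blocked for 1 hour in 4% Marvel in PBS. Periplasmic extracts diluted 1:5 in 1% Marvel/PBS then bound for 1 hour, with specificity assessed from 450 nm absorbance relative to negative controls.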

[4] = biological target: T4, human interleukin-2 receptor α-chain …; assay: P.E. binding ELISA
In short: as §1

[5] = biological target: T3, mouse IL-2Rα, recombinant protein; assay: P.E. off-rate SPR
In short: (§2)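 Recombinant receptor was amine-coupled in acetate buffer onto a CM5 carboxymethyl dextran chip at approximately 2500 RU. VHH-containing periplasmic extracts were injected at 30 uL/min, and dissociation was followed for 120s to give off-rates.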

[6] = biological target: T4, human interleukin-2 receptor α-chain …; assay: P.E. off-rate SPR
In short: as §2

| PE binding ELISA (OD450 nm) [1] [OD450] | koff (mouse IL-2Rα) [s⁻¹] | koff [2] [s⁻¹] | OD450 nm [3] [OD450 nm] | OD450 nm [4] [OD450 nm] | koff [5] [s⁻¹] | koff [6] [s⁻¹] | Binder |
| --- | --- | --- | --- | --- | --- | --- | --- |
| 2.19 | 0.00463 | 0.000469 |  |  |  |  | FJ1427_P035MP05F12 (VHH, Tested as soluble VHH in a crude periplasmic extract (P.E.); CDR3 family 4; also called Clone nr) VHH: QLQLVESGGGLVQAGGSLRLSCLASGLTFDGYAIGWFRQAPGKELEGVSYITGSDGSSYYADSVKGRFTISSDNAKNTVYLHMNSLKPDDAAVYYCAIDHLGSRGGYHSSWWRSSDMDLWGKGTLVTVSS |
|  |  |  | 0.047 | 2.35 | 0.0442 | 0.000169 | 9-MP05G01 VHH (periplasmic extract) (VHH, soluble VHH in periplasmic extract) VHH: EVQLVESGGGLVQAGGSLRLSCAASGGSIYTYNMGWFRQAPGKEREFVAGTLWSGGDSVYADFAKGRFTLSRENAKNTLYLQMNSLKPEDTATYYCAIDPLSLTSDWRVDELSSWGKGTLVTVSS |
